Laboratory results taken from article PMC4527729, “The Inner Membrane Protein PilG Interacts with DNA and the Secretin PilQ in Transformation”.

B1: T1 (ssDNA)
DNA: CAACAACAACAACAGCCGTCTGAACCAAATTCAGACGGCAACAACAACAACA
B2: T1T2 (dsDNA)
DNA 1: B1 DNA
DNA 2: TGTTGTTGTTGTTGCCGTCTGAATTTGGTTCAGACGGCTGTTGTTGTTGTTG
B3: HH10HH11 (dsDNA DUS-) (dsDNA)
DNA 1: AACAACAACAAAAGGCCTGTCATCCAACTTCCGGACAGTAAACAACAACAAC
DNA 2: GTTGTTGTTGTTTACTGTCCGGAAGTTGGATGACAGGCCTTTTGTTGTTGTT
B4: HH8 (ssDNA)
DNA: GTTGTTGTTGTTTTCAGACGGCATGTTGGTTCAGACGGCATTTGTTGTTGTT
B5: T3 (ssDNA)
DNA: CAACAACAACAACAGGCCTGTCATCCAAAATGACAGGCCAACAACAACAACA
B6: T3T4 (dsDNA)
DNA 1: B5 DNA
DNA 2: TGTTGTTGTTGTTGGCCTGTCATTTTGGATGACAGGCCTGTTGTTGTTGTTG
B7: HH9 (ssDNA)
DNA: GTTGTTGTTGTTATGCCGTCTGAAGTTGGATGCCGTCTGAATTGTTGTTGTT

Assays:
[1] = target: PilG FL (Neisseria meningitidis MC58) (UniProt Q7DDR1); experiment: EMSA; conditions: Optimized EMSA: 50 mM HEPES pH 7.5, 100 mM NaCl, 5 mM MgCl2, 1 mM DTT, 10% glycerol, 0.05% DDM, on ice 15 min, 0.45 nM DNA; first EMSA: 25 mM NaH2PO4 pH 8.0 …
[2] = target: T1, PilG1-178 (Neisseria meningitidis MC58, UniProt Q7DDR1 1-178); experiment: South-western; Optimized EMSA: 50 mM HEPES pH 7.5, 100 mM NaCl, 5 mM MgCl2, 1 mM DTT, 10% glycerol, 0.05% DDM, on ice 15 min, 0.45 nM DNA; first EMSA: 25 mM NaH2PO4 pH 8.0, 150 mM NaCl, 1 mM DTT, 10% glycerol, 0.05% DDM, on ice; conditions: protein: recombinant, tags: C-terminal 6xHis, label: 32P end label
[3] = target: PilG257-410 (Neisseria meningitidis MC58, UniProt Q7DDR1 257-410); experiment: as above; conditions: protein: recombinant, tags: C-terminal 6xHis, label: 32P end label
[4] = target: PilG30-80 (Neisseria meningitidis MC58, UniProt Q7DDR1 30-80); experiment: as above; conditions: protein: recombinant, tags: C-terminal 6xHis, label: 32P end label
[5] = target: PilG166-410 (Neisseria meningitidis MC58, UniProt Q7DDR1 166-410); experiment: as above; conditions: protein: recombinant, tags: C-terminal 6xHis, label: 32P end label
[6] = target: PilG1-256 (Neisseria meningitidis MC58, UniProt Q7DDR1 1-256); experiment: as above; conditions: protein: recombinant, tags: C-terminal 6xHis, label: 32P end label
[7] = target: PilG1-140 (Neisseria meningitidis MC58, UniProt Q7DDR1 1-140); experiment: as above; conditions: protein: recombinant, tags: C-terminal 6xHis, label: 32P end label
[8] = target: PilG1-80 (Neisseria meningitidis MC58, UniProt Q7DDR1 1-80); experiment: as above; conditions: protein: recombinant, tags: C-terminal 6xHis, label: 32P end label
[9] = target: PilG1-60 (Neisseria meningitidis MC58, UniProt Q7DDR1 1-60); experiment: as above; conditions: protein: recombinant, tags: C-terminal 6xHis, label: 32P end label
[10] = target: T2, PilG FL (Neisseria meningitidis MC58, UniProt Q7DDR1 1-410); experiment: as above; conditions: protein: recombinant, tags: C-terminal 6xHis, label: 32P end label
[11] = target: PilG Q55A (Neisseria meningitidis MC58, UniProt Q7DDR1 1-410, Q55A); experiment: South-western; same as FL; Optimized EMSA: 50 mM HEPES pH 7.5, 100 mM NaCl, 5 mM MgCl2, 1 mM DTT, 10% glycerol, 0.05% DDM, on ice 15 min, 0.45 nM DNA; first EMSA: 25 mM NaH2PO4 pH 8.0, 150 mM NaCl, 1 mM DTT, 10% glycerol, 0.05% DDM, on ice; conditions: protein: recombinant; tags: C-terminal 6xHis; label: 32P end label
[12] = target: PilG SS62-63AA (Neisseria meningitidis MC58, UniProt Q7DDR1 1-410, S62A;S63A); experiment: as above; conditions: protein: recombinant; tags: C-terminal 6xHis; label: 32P end label
[13] = target: T3, PilG EEE39-41AAA (Neisseria meningitidis MC58, UniProt Q7DDR1 1-410, E39A;E40A;E41A); experiment: South-western; increased vs FL per text; Optimized EMSA: 50 mM HEPES pH 7.5, 100 mM NaCl, 5 mM MgCl2, 1 mM DTT, 10% glycerol, 0.05% DDM, on ice 15 min, 0.45 nM DNA; first EMSA: 25 mM NaH2PO4 pH 8.0, 150 mM NaCl, 1 mM DTT, 10% glycerol, 0.05% DDM, on ice; conditions: protein: recombinant; tags: C-terminal 6xHis; label: 32P end label
[14] = target: T1, PilG1-178; experiment: EMSA; 5 mM MgCl2; Optimized EMSA: 50 mM HEPES pH 7.5, 100 mM NaCl, 5 mM MgCl2, 1 mM DTT, 10% glycerol, 0.05% DDM, on ice 15 min, 0.45 nM DNA; first EMSA: 25 mM NaH2PO4 pH 8.0, 150 mM NaCl, 1 mM DTT, 10% glycerol, 0.05% DDM, on ice; conditions: protein: recombinant; tags: C-terminal 6xHis; label: 32P end label; blunt
[15] = target: T2, PilG FL; experiment: EMSA; optimized EMSA; R2 0.91?; Optimized EMSA: 50 mM HEPES pH 7.5, 100 mM NaCl, 5 mM MgCl2, 1 mM DTT, 10% glycerol, 0.05% DDM, on ice 15 min, 0.45 nM DNA; first EMSA: 25 mM NaH2PO4 pH 8.0, 150 mM NaCl, 1 mM DTT, 10% glycerol, 0.05% DDM, on ice; conditions: protein: recombinant; tags: C-terminal 6xHis; label: 32P end label
[16] = target: PilG RKK43-45AAA (Neisseria meningitidis MC58, UniProt Q7DDR1 1-410, R43A;K44A;K45A); experiment: EMSA; extrapolated; about 50% bound at 5 uM per text; Optimized EMSA: 50 mM HEPES pH 7.5, 100 mM NaCl, 5 mM MgCl2, 1 mM DTT, 10% glycerol, 0.05% DDM, on ice 15 min, 0.45 nM DNA; first EMSA: 25 mM NaH2PO4 pH 8.0, 150 mM NaCl, 1 mM DTT, 10% glycerol, 0.05% DDM, on ice; conditions: protein: recombinant; tags: C-terminal 6xHis; label: 32P end label
[17] = target: T3, PilG EEE39-41AAA; experiment: South-western; increased vs FL; Optimized EMSA: 50 mM HEPES pH 7.5, 100 mM NaCl, 5 mM MgCl2, 1 mM DTT, 10% glycerol, 0.05% DDM, on ice 15 min, 0.45 nM DNA; first EMSA: 25 mM NaH2PO4 pH 8.0, 150 mM NaCl, 1 mM DTT, 10% glycerol, 0.05% DDM, on ice; conditions: protein: recombinant; tags: C-terminal 6xHis; label: 32P end label

| Molecule | binding result [2] | binding result [3] | binding result [4] | binding result [5] | binding result [6] | binding result [7] | binding result [8] | binding result [9] | binding result [10] | other results |
| --- | --- | --- | --- | --- | --- | --- | --- | --- | --- | --- |
| 52 bp dsDNA, S3 Fig |  |  |  |  |  |  |  |  |  | Kd [1]: 300 nM |
| B1 | binds | no binding | no binding | no binding | binds | binds | binds | no binding | binds | binding result [11]: binds; binding result [12]: binds; binding result [13]: binds |
| B2 |  |  |  |  |  |  |  |  |  | binding result ([2]; blunt): binds; binding result ([3]; blunt): no binding; binding result ([4]; blunt): no binding; binding result ([5]; blunt): no binding; binding result ([6]; blunt): binds; binding result ([7]; blunt): binds; binding result ([8]; blunt): binds; binding result ([9]; blunt): no binding; binding result ([10]; blunt): binds |
| B3 |  |  |  |  |  |  |  |  |  | apparent K (half saturation) [14]: 269 nM |
| B4 |  | no binding | no binding | no binding |  |  |  | no binding |  | apparent K (half saturation) [15]: 1160 nM; binding result [13]: binds; apparent K (half saturation) [16]: ~15.7 mM |
| B5 | binds | no binding | no binding | no binding | binds | binds | binds | no binding | binds |  |
| B6 |  |  |  |  |  |  |  |  |  | binding result ([2]; blunt): binds; binding result ([3]; blunt): no binding; binding result ([4]; blunt): no binding; binding result ([5]; blunt): no binding; binding result ([6]; blunt): binds; binding result ([7]; blunt): binds; binding result ([8]; blunt): binds; binding result ([9]; blunt): no binding; binding result ([10]; blunt): binds |
| B7 | binds | no binding | no binding | no binding | binds | binds | binds | no binding | binds | binding result [11]: binds; binding result [12]: binds; binding result [17]: binds |
